From patent US20250320281A1 come the findings set out here.

What all share (experiment): cell-based or functional assay
The target of assay [1] is HIV-1 Env of isolate MG RM-D-018 (HIV-1).
In assay [2] the target is HIV-1 envelope glycoprotein (Env) of isolate MGRM-C-012 (HIV-1).
In assay [3] the target is HIV-1 Env of isolate MGRM-AG-001 (subtype AG) (HIV-1).
The target in assay [4] is HIV-1 Env of isolate MG RM-D-022 (HIV-1).
For assay [5], the target named is HIV-1 Env of isolate MG RM-D-012 (HIV-1).
Assay [6] addresses HIV-1 Env of isolate 98CN009 (HIV-1).
Assay [7] has as its target HIV-1 Env of isolate 92WR026 (HIV-1).
In assay [8] the target is HIV-1 Env of isolate 93MW959 (subtype C) (HIV-1).
Assay [9] has as its target HIV-1 Env of isolate MGRM-C-026 (pseudovirus) (HIV-1).
Assay [10] has as its target HIV-1 Env of isolate MGRM-Chronic-B-012 (subtype B) (HIV-1).
Assay [11] concerns the target HIV-1 Env of isolate MG RM-D-003 (HIV-1).
Assay [12] deals with HIV-1 Env of isolate TRO.11 (subtype B) (HIV-1).
Assay [13] addresses HIV-1 envelope glycoprotein (Env) of isolate MGRM-C-014 (HIV-1).
Assay [14] concerns the target HIV-1 Env of isolate MGRM-A-008 (subtype A) (HIV-1).
Assay [15] addresses HIV-1 Env of isolate NL43 (subtype B) (HIV-1).
Assay [16] addresses HIV-1 Env of isolate MG RM-D-013 (HIV-1).
In assay [17] the target is HIV-1 Env of isolate MGRM-Chronic-B-024 (subtype B) (HIV-1).
Assay [18] concerns the target HIV-1 Env of isolate MGRM-D-012 (pseudovirus) (HIV-1).
The target in assay [19] is HIV-1 Env of isolate MGRM-F1-015 (HIV-1).
Assay [20] deals with HIV-1 Env of isolate MGRM-F1-018 (HIV-1).
Assay [21] has as its target HIV-1 Env of isolate MGRM-D-019 (pseudovirus) (HIV-1).
The target of assay [22] is HIV-1 Env of isolate 92TH021 (clade AE), on pseudovirus (HIV-1).
The target of assay [23] is HIV-1 Env of isolate QH0692.42 (subtype B pseudovirus) (HIV-1).
For assay [24], the target named is HIV-1 Env of isolate MGRM-Chronic-B-012 (subtype B pseudovirus) (HIV-1).
The target in assay [25] is HIV-1 Env of isolate 92UG005 (clade D), on pseudovirus (HIV-1).
The target of assay [26] is HIV-1 92BR020 Env (pseudovirus) (HIV-1).
The target in assay [27] is HIV-1 Env of isolate MGRM-Chronic-B-002 (subtype B pseudovirus) (HIV-1).
Assay [28] addresses HIV-1 MGRM-C-028 Env (pseudovirus, clade C) (HIV-1).
For assay [29], the target named is HIV-1 94UG103 envelope glycoprotein (Env) on pseudovirus (HIV-1).
The target in assay [30] is HIV-1 Env of isolate THR0.18 (subtype B pseudovirus) (HIV-1).
The target of assay [31] is HIV-1 Env of isolate MGRM-F1-013 (HIV-1).
For assay [32], the target named is HIV-1 MGRM-C-027 Env (pseudovirus, clade C) (HIV-1).
Assay [33] has as its target HIV-1 Env of isolate MGRM-Chronic-B-017 (subtype B pseudovirus) (HIV-1).

Chain of 5345_I01 (PGT-137) (antibody) (VH): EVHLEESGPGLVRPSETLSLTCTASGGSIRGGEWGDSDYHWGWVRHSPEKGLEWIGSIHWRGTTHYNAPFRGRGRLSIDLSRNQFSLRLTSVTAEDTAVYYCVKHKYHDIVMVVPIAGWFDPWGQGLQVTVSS
Chain of 5345_I01 (PGT-137) (antibody) (VL): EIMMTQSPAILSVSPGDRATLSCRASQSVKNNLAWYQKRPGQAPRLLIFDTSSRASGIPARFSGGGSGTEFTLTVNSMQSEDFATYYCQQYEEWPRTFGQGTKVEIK

Turning to 5136_H01 (PGT-131) (antibody), the IC50 (µg/mL), pseudovirus neutralization was 0.148 µg/mL in assay [1]; > 50 µg/mL in assay [2]; > 50 µg/mL in assay [3]; > 50 µg/mL in assay [4]; > 50 µg/mL in assay [5]; 4.05 µg/mL in assay [6]. Besides, the IC50 (µg/mL), pseudovirus neutralization in assay [11] was 19.6 µg/mL; in assay [13], > 50 µg/mL; in assay [14] it was > 50 µg/mL; in [16], 4.14 µg/mL. The IC50 in assay [7] stood at 0.041 µg/mL. Also, the IC50 neutralization in assay [8] was > 50 µg/mL; in assay [10] it was 15.7 µg/mL; in [12], 1.91 µg/mL; in assay [15] it was > 50 µg/mL; in [17], > 50 µg/mL. The substance also came in with a Primary Neutralization Index (B cell culture supernatant) in assay [9] of 1.2.

As to 5141_B17 (PGT-126) (antibody), the IC50, pseudovirus neutralization is > 50 µg/mL in assay [18]; > 50 µg/mL in assay [21]; 0.115 µg/mL in assay [22]; 0.0181 µg/mL in [25]; 0.0091 µg/mL in assay [29]. For the same substance, the IC50 (µg/mL), pseudovirus neutralization in assay [19] is > 50 µg/mL; in assay [20] it was 14.9 µg/mL; in assay [23], 0.048 µg/mL; in assay [24], 0.027 µg/mL; in assay [27], 0.078 µg/mL; in [30], > 50 µg/mL. Further, the IC50 (µg/mL), pseudovirus neutralization in [31] and in [33] was > 50 µg/mL in each case. Further, in [26], the neutralization IC50 (pseudovirus) was found to be 0.0163 µg/mL. The figures for the IC50 neutralization in [28] and in [32] were 0.283 µg/mL and 1.14 µg/mL, respectively. In [29], this substance yielded an IC80 (pseudovirus neutralization) of 0.0316 µg/mL. The IC90 (pseudovirus neutralization) in assay [29] stood at 0.0655 µg/mL. The IC95 (pseudovirus neutralization) in assay [29] is 0.128 µg/mL. Besides, the Polyclonal Transfectant Neutralization Index in [9] came to 102. Further, the Primary Neutralization Index (B cell culture supernatant) in assay [9] stood at 654.

For the substance 5343_B08 (PGT-135) (antibody), the IC50 (µg/mL), pseudovirus neutralization in assay [1] is 0.039 µg/mL; in [2], 0.017 µg/mL; in assay [3], > 50 µg/mL; in assay [4], > 50 µg/mL; in [5], > 50 µg/mL; in assay [6], 0.071 µg/mL. The IC50 (µg/mL), pseudovirus neutralization in assay [11], in [13], in assay [14] and in assay [16] was > 50 µg/mL each time. The IC50, pseudovirus neutralization in assay [22] and in assay [25] was > 10 µg/mL throughout. In assay [26], the neutralization IC50 (pseudovirus) amounted to 0.104 µg/mL. For the same substance, the IC50 in [7] was determined as 0.068 µg/mL. Besides, the IC50 neutralization is 2.16 µg/mL in assay [28]; > 50 µg/mL in assay [8]; 0.166 µg/mL in assay [10]; 0.03 µg/mL in [12]; > 10 µg/mL in assay [32]; 8.03 µg/mL in assay [15]. In addition, the IC50 neutralization in assay [17] was > 50 µg/mL. The same substance had a Primary Neutralization Index (B cell culture supernatant) in assay [9] of 6.5.

For the substance 5147_N06 (PGT-130) (antibody), the IC50 (µg/mL), pseudovirus neutralization in [1] is 0.049 µg/mL; in assay [2], > 50 µg/mL; in [3], > 50 µg/mL; in assay [4], > 50 µg/mL; in assay [5] it was > 50 µg/mL; in [6] it was 0.136 µg/mL. For the same substance, the IC50 (µg/mL), pseudovirus neutralization is 0.651 µg/mL in [11], > 50 µg/mL in [13], > 50 µg/mL in [14] and 0.429 µg/mL in assay [16]. Further, the IC50, pseudovirus neutralization in [22] worked out at 0.0082 µg/mL; in assay [25], 0.474 µg/mL. In assay [26], this substance came in with a Neutralization by PGT-130, IC50 of 1.12 µg/mL. For the same substance, the Neutralization by PGT-130, IC80 in assay [26] is > 10 µg/mL. The Neutralization by PGT-130, IC90 in assay [26] is > 10 µg/mL. Further, in assay [26], the Neutralization by PGT-130, IC95 was > 10 µg/mL. In assay [26], the neutralization IC50 (pseudovirus) turned out to be 1.12 µg/mL. In assay [7], this substance had an IC50 of 0.037 µg/mL. Also, the IC50 neutralization in assay [28] was > 10 µg/mL; in assay [8] it was 8.55 µg/mL; in [10], 0.373 µg/mL; in assay [12], 0.257 µg/mL; in assay [32] it was 0.0052 µg/mL; in [15], > 50 µg/mL. For the same substance, the IC50 neutralization in [17] is 5.78 µg/mL. This substance returned a Polyclonal Transfectant Neutralization Index in assay [9] of 1.05. The substance further registered a Primary Neutralization Index (B cell culture supernatant) in assay [9] of 3.

With 5345_I01 (PGT-137) (antibody), the IC50 (µg/mL), pseudovirus neutralization in [1] was 15.1 µg/mL; in [2] it was 0.102 µg/mL; in [3] it was > 50 µg/mL; in assay [4], > 50 µg/mL; in assay [5], > 50 µg/mL; in [6] it was 5.06 µg/mL. The IC50 (µg/mL), pseudovirus neutralization in assay [11], in assay [13], in assay [14] and in assay [16] was > 50 µg/mL in each case. In assay [7], this substance came in with an IC50 of 0.092 µg/mL. Besides, the IC50 neutralization in assay [8] was > 50 µg/mL; in [10] it was > 50 µg/mL; in assay [12] it was 9.35 µg/mL; in assay [15], 17.4 µg/mL; in assay [17], > 50 µg/mL. In addition, in assay [9], the Primary Neutralization Index (B cell culture supernatant) was determined as 11.3.

As to 5114_A19 (PGT-128) (antibody), the IC50 (µg/mL), pseudovirus neutralization is 0.008 µg/mL in [1]; 0.058 µg/mL in [2]; 4.73 µg/mL in [3]; > 50 µg/mL in assay [4]; > 50 µg/mL in [5]; 0.025 µg/mL in assay [6]. For the same substance, the IC50 (µg/mL), pseudovirus neutralization in assay [11] is 0.019 µg/mL; in [13], > 50 µg/mL; in assay [14] it was > 50 µg/mL; in assay [16] it was 8.85 µg/mL. The IC50 in assay [7] was 0.01 µg/mL. In addition, the IC50 neutralization in assay [8] is 0.045 µg/mL; in assay [10] it was 0.026 µg/mL; in [12] it was 0.018 µg/mL; in [15], > 50 µg/mL; in assay [17] it was > 50 µg/mL. This substance returned a Polyclonal Transfectant Neutralization Index in assay [9] of 32.2. Moreover, the Primary Neutralization Index (B cell culture supernatant) in assay [9] turned out to be 17.1.
